Where no end group is shown, it is not given here. [ ]: non-standard residue; d: D form. The star is where a group is joined. Myristoyl = CCCCCCCCCCCCCC(=O)*; pS = N[C@@H](COP(=O)(O)O)C(=O)O
Molecular target: wild-type (WT) GSK-3β (human, UniProt P49841 1-420, phosphorylated at Tyr 216 (shown by western blot))
Experiment: cell-based or functional assay

Chain of wild-type (WT) GSK-3β (P49841 other isoform, or with tags, fused parts or gaps limits assumed): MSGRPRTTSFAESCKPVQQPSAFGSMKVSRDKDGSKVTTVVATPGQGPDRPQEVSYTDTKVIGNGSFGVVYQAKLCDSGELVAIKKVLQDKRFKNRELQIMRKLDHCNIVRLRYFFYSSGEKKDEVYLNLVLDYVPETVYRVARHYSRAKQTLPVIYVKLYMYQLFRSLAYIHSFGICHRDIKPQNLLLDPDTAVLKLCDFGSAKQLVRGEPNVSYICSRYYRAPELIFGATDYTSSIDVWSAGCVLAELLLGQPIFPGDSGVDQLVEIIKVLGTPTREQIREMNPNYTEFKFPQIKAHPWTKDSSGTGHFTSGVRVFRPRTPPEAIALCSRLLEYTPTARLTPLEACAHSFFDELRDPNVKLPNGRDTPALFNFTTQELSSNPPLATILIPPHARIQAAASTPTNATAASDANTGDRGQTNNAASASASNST

KEAPPAPPA[pS]P [PQ9A (L803 variant where Gln9 was replaced by alanine)]
inhibition of GSK-3β in in vitro kinase assays (substrate phosphorylation, no inhibitor = 100%): ~2 fold relative to L803

Myristoyl-GKEAPPAPPP[pS]P [L806-mts, Myr-GKEAPPAPPPS(p)P]
IC50, in vitro kinase assays with GSK-3β at increasing inhibitor concentrations: ~1000 nM
